This assay concerns the target 3-pTza peptide library (Ac-Cys.G/A.G/A.G/A.G/A.X.G/A.G/A.G/A.G/A-CONH2, X = 3-pTza). Kind of assay: 3-pTza peptide dot blot array.

B1: 3-pHis mAb SC44-8 (antibody, V domains shown)
VH: ESGRGLVQPGGSLTLTCTASGFSIDSYGFSWVRQAPGKGLEHIGYLTAGGRAFYASWAKSRSTITRNTNENTVTLKMTSLTAADTATYFCAKLGSGNPVAIWGPGTLVTVSS
VL: DPVMTPTPSFTSAAVGGTVTINCQSSQSVWRNKNLAWYQQKPGQPPKRLIYAIATLDSGVPSRFSGSGSGTQFTLTISDVQCDDAATYYCVGHYGSENDAYYAFGGGTEVVVKG
For B1, the lowest amount detected is 800 pg.
